The values that follow come from PMC5405865.

One assay deals with 70S ribosomes. The assay can be described thus: NMR titration.
In assay [1] the target is The RNCs, denoted FLN5+L (with L = 21 to 110). The assay can be described thus: co-purification with the RNC, western blot.

Substance “FLN5 Y719E, isolated unfolded variant of FLN5 (from UniProt P13466 646-750) (domain or fragment)” yielded a reduction in resonance intensities with equimolar 70S ribosomes with 70S ribosomes of 30%.

The substance “FLN5∆12, 12-residue C-terminal truncation of isolated FLN5 (from UniProt P13466 646-738) (domain or fragment)” had a reduction in resonance intensities with equimolar 70S ribosomes with 70S ribosomes of 30%.

With “DnaK (from UniProt P0A6Y8 1-638) (natural protein)”, the occupancy of the purified RNCs in assay [1] is less than 1.5%.

Turning to “trigger factor (from UniProt P0A850 1-432) (natural protein)”, the occupancy of the purified RNCs in assay [1] was less than 1.5%.
